# Test results: the DeepSol protein solubility set
# Experiment: soluble on expression in E. coli; label from the status in PepcDB or PDB records
row,Sequence,soluble on expression in E. coli
1,MGEQSHEKDHDEAHSYNPFVRSAVEYDADTRLQMAENAASARKLFVSSALKDIIVNPENFYHDFQQSAQMAEDANQRRQVSYNTKREAHIHQLKAQGLPLPSNIPMIEINPTRVTLNMEFESQYYSLMTSDNGDHENVASIMAETNTLIQLPDRSVGGTTPDPFAQQVTITGYFGDVDRARMLMRRNCHFTVFMALSKMKMPLHELQAHVRQNPIQNVEMSFVDAPEKNGIVTTYLRITAREKNQHELIEAAKRLNEILFRESPAPENNFTLHFTLSTYYVDQVLGSSSTAQLMPVIERETTTIISYPCYNNRNETRGNIYEIKVVGNIDNVLKARRYIMDLLPISMCFNIKNTDMAEPSRVSDRNIHMIIDESGIILKMTPSVYEPADLLSGEVPLNCASLRSKEFNIKKLYTAYQKVLSKKFDFIAPQPNDYDNSIWHHSLPANFLKNFNMPCRGELSDGSNGRRHRSSSIASSRSKHSYMSKGKQFSESSGGPSRSHTRVSSFSENSSTVPIMQFPTPHFAPPMLTPHHHMLKYVYLQQHQQAQTFLKGAAGLHPGTHIMFPPPIIVDGSFVSALPFADPVVFDGFPYVHGLFPVNEAEQHRNHRESSPSLRSTQEIRKPSRNMGNRPSSSTGSYYPSTTPRQRVYEQVREDDLRSHIGSRRTSVNGDDQNVESMHDQGYERQYPRQHQRLQKDDQQRWKTGSRGDIHSSRTINVHRDVRNSNEYDFHVGNSGPAKRSPSLEQVQLQMTHHLKLKSNDVDLDHEKLYMHESPHNDSDTTVSASGFGNDLMDGDFVQRFLSNANINESGRRPRTVSCFTEKDGQSARYIDSDGAYSVVDHASTHQSRSYDSFRKVGDNGVTKTILEPRARVEKDYGKISLEHKTKYSNEYGDEEKSAENDTSSLGSRQYRIDPMKRNIYILRNRDFSNSFFYFLHQFSLYMNPICAYRIRLHQFLSYKPSICLSRISLYPRDLYD,not soluble
2,MGESPSNPSGLTFRLADDRKLKAIYVPAAEKASVNLGFLRHALVAGGFADLFIYDHALVELIKRYNAATQEFVYDVGEQRDGTYIIRNTPDNIEAYLTLTRPYGGKPVCPEQLHQALREQGVIYGVLTDEIETAIEAGEATDLLIARGIPPEQGTDAELVSLIPQARDRQPELQDNETVDYRDRGEISSVKAGDPLMRRIPPTPGKPGTNIMGKEVPAPPAKDLKFTPNLPGTTFAPDDPDLLIAAIDGQPVLVANGVMIEPVIKIKNVDLSSGNISFKGSVDISGDITPGMTVRATGDITVGGVVEGATLEAEGDIVVRGGIIGPGENRDPKGKSGQERALIRAKGNIEALFVENSLVEAGGMIQIAGFAMQSNLVAGTQVVVGQEGTTKGHIIGGSCQAVSRIQAVTLGSHAGVHTTVSVGVNPHVKEKLSTVKLKIAEAERELDELTKRLDYFASTPLKGSPEQINETRQAKDKLVTALSELKGERKRLEKRLEQASDALIRVERAVLSGVVISIGTKTLEVKDDMEGGITFRLEDDAIVASQLEHHHHHH,not soluble
3,MGFDESSQMIDPDGELSFFKQNENRTPVTSVPSTSKAVLPFNFDDDEDDEYFKTPKIAEKKKKLPEAMAPVSEDSFDFDIAVPQSIINRIPAKTTAQPAKKYPKIPNLSAKTSSKPTEAPKTENVLKIKSKSQEIAQKPQKSTRISSFFSRTTSSTSNLTEYKRGKSAKMKHISKMEQFFVEHERDIICVGECGLDHTISQFKLTTEDFEEQETVFKWQIDLAKHFEKPLILEIPDISRNVHSRSAARRTIEILLECHVAPDQVVLHAFDGTPGDLKLGLEAGYLFSIPPSFGKSEETTQLIESIPLSQLLLETDSPALGPEKGCKNVPANLRISAEIVAKIKKLEIDDIISATSTNANRIFKF,soluble
4,MGFEQLAELRDRLRAQAAQAKPAQTKSSAGRAKKREAVEPGVEAIWRLQRHFPLAFPKSPAAKVPLKQGILQDAQQHLELLGITAEQLKQAIATWCQGSRYWSCMVEDAPRLDLQGQVAGKVTAEQAVYARRQASRRQREQMREKRAKRAQAGGEAPAATEAPTPEAPATEASPEAN,not soluble
5,MGFHLRGLGGSLKPLPFSTMYLEATGKSIEADLRTVFARDPKLSVMSEPKGAQAVVSVVSENQSKDILTINTGGRINEYQLTYTVVVRTVIGGVPVDPDMVVTVRRSLNYSDNQVLGKQQEEDLLWADARRDAAEQIVRRLAYLKVPAAPLAGPVSVKPDAVPQPLEHHHHHH,soluble
6,MGGDMHEITLCQRALELIEQQAAKHGAKRVTGVWLKIGAFSCVETSSLAFCFDLVCRGSVAEGCKLHLEEQEAECWCETCQQYVTLLTQRVRRCPQCHGDMLQIVADDGLQIRRIEIDQE,not soluble
7,MGGGKYETQMCVIIIEDIFGKIVAKVMETILKESCQLSTLFYKLKGQISNTLIRKSVSTLINFGFVTFHLDTNNRTTYVADSDQIQHVISSPRACLIAKTLYGPAAESICVELISQGRLTVSETIRRIQATDETAVFSDIKKSFEELAAAHFLIRVPSVESEIHGCPQFVTNFDPFAISTNIMEKKEGTSTSDSTSNNRKRKADSTPEDGDAGQYWRINWIRFNGYLRDELIIDYLIGGGSKGTMTNLNVKKEETIEDPQGDRTQYITQNVAHLMFKINETRAKPMSMESITASLTDLQRLVKENGLNLAKPDIELACQILVDESDGIIRKLGESNGGIFIVDIRRAIRQICRHHCESLIREQFEGRAIRVMRLLENRHYLDEEQVEKLSMMSGKEAREMLYALVEEGYVFNKPVGRSNDFQPARTFYLYYVDLPRTIRGLVEYTCKLVRNLIVRQRHERTENKSVLDKDANVQPIIENIRSSEQLDEASKLAQIAEVEEMYLPGPDRAQLNRFRKAQATLLAAQDQSIRVLLSFKLFLASGEN,not soluble
8,MGGITMTAVVSNRDKINFHEVADHYHSNKIIFGIKFLKNWALERLASCAPVPSWRAKLHKMRGVNIGENVYIGYDVIFDRIHPEMITVGDYAEIGDRCILSAHSRGSLTTRQAYPRSIAPIKIGRGVSVNPGCIITQGVEIGDNSIIGVGSVVSRNISPNSLALGYPAKVIKKLDG,soluble
9,MGGSGVEGLSGKRCWLAVRNASLCQFLETSLQRSGIVVTTYEGQEPTPEDVLITDEVVSKKWQGRAVVTFCRRHIGIPLEKAPGEWVHSVAAPHELPALLARIYLIEMESDDPANALPSTDKAVSDNDDMMILVVDDHPINRRLLADQLGSLGYQCKTANDGVDALNVLSKNHIDIVLSDVNMPNMDGYRLTQRIRQLGLTLPVIGVTANALAEEKQRCLESGMDSCLSKPVTLDVIKQTLTLYAERVRKSRDS,soluble
10,MGHHHHHHGGHMSLNISDVAKITGLTSKAIRFYEEKGLVTPPMRSENGYRTYTQQHLNELTLLRQARQVGFNLEESGELVNLFNDPQRHSADVKRRTLEKVAEIERHIEELQSMRDQLLALANACPGDDSADCPIIENLSGCCHHRAGEGGS,soluble
11,MGHHHHHHGGHMSLSTKAKQQSSQQMTRGFEPYQETKGEEYMSERMRAHFTAILNKWKQELMEEVDRTVHHMQDEAANFPDPADRASQEEEFSLELRARDRERKLIKKIDETLQLIEDEEYGWCDSCGVEIGIRRLEARPTATLCIDCKTLAEIREKQLGSEGGS,soluble
12,MGHHHHHHHHHHSSGHIEGRHMLGLGASDFEFGVDPSADPELALALRVSMEEQRQRQEEEARRAAAASAAEAGIATTGTEDSDDALLKMTISQQEFGRTGLPDLSSMTEEEQIAYAMQMSLQGAEFGQAESA,soluble
13,MGHHHHHHHHSSGHIEGRHMAHLLIVNVASHGLILPTLTVVTELVRRGHRVSYVTAGGFAEPVRAAGATVVPYQSEIIDADAAEVFGSDDLGVRPHLMYLRENVSVLRATAEALDGDVPDLVLYDDFPFIAGQLLAARWRRPAVRLSAAFASNEHYSFSQDMVTLAGTIDPLDLPVFRDTLRDLLAEHGLSRSVVDCWNHVEQLNLVFVPKAFQIAGDTFDDRFVFVGPCFDDRRFLGEWTRPADDLPVVLVSLGTTFNDRPGFFRDCARAFDGQPWHVVMTLGGQVDPAALGDLPPNVEAHRWVPHVKVLEQATVCVTHGGMGTLMEALYWGRPLVVVPQSFDVQPMARRVDQLGLGAVLPGEKADGDTLLAAVGAVAADPALLARVEAMRGHVRRAGGAARAADAVEAYLARAR,soluble
14,MGHHHHHHMEARNMTPFTYFSLPMQKLFLRNQAAVRNKPYAKYFRSEMRVPLSAVRKIQQGPMALEDTLTPSIEDINRLLEPDFVSEESGYALLPGPMAYVQSRKFFPGCTAQMFKWWFIWHPAESERYTLWFPYAHVSNPCVHHQRLRDESLSFEERLYGNTFCASEYVGDRLMHLHIDFQQPASLGLNTDLYREAKIDGSVSALMSLADHPEVPVSLMVHLFKEVPDGMYLTSRYWVGAHPSMARFPGAEKAASLLKENGFGEAELETLAYEFAVHDMCEFNHLASFLPDLYREFGTPAA,soluble
15,MGHHHHHHSGEVKPEVKPETHINLKVSDGSSEIFFKIKKTTPLRRLMEAFAKRQGKEMDSLRFLYDGIRIQADQTPEDLDMEDNDIIEAHREQIGGMRTYLDLLQHVLDHGVDRDDRTGTGTRSVFGYQMRFDLEEGFPVLTTKKLHLRSIIHELLWFLKGDTNIAYLKENGVTIWDEWADENGDLGPVYGYQWRSWPAPDGRHIDQIANLLKMLHTNPQSRRLIVSAWNPALVDEMALPPCHCLFQFYVANGRLSCQLYQRSADIFLGVPFNIASYALLTMMIAQVTGLKPGEFIHTLGDAHIYSNHFEQARLQLTRTPKKLPVMHINPDVKDLFAFRFEDFRLDGYEADPTIKAPIAV,soluble
16,MGHHHHHHSHAESHLQSSLITASQFFEIWLHFDADGSGYLEGKELQNLIQELQQARKKAGLELSPEMKTFVDQYGQRDDGKIGIVELAHVLPTEENFLLLFRCQQLKSCEEFMKTWRKYDTDHSGFIETEELKNFLKDLLEKANKTVDDTKLAEYTDLMLKLFDSNNDGKLELTEMARLLPVQENFLLKFQGIKMCGKEFNKAFELYDQDGNGYIDENELDALLKDLCEKNKQDLDINNITTYKKNIMALSDGGKLYRTDLALILCAGDN,soluble
17,MGHHHHHHSHALQVDISDALSERDKVKFTVHTKSSLPNFKQNEFSVVRQHEEFIWLHDSFVENEDYAGYIIPPAPPRPDFDASREKLQKLGEGEGSMTKEEFTKMKQELEAEYLAIFKKTVAMHEVFLCRVAAHPILRRDLNFHVFLEYNQDLSVRGKNKKEKLEDFFKNMVKSADGVIVSGVKDVDDFFEHERTFLLEYHNRVKDASAKSDRMTRSHKSAADDYNRIGSSLYALGT,not soluble
18,MGHHHHHHSHDFIPRGAFGKVYLAQDIKTKKRMACKLIPVDQFKPSDVEIQACFRHENIAELYGAVLWGETVHLFMEAGEGGSVLEKLESCGPMREFEIIWVTKHVLKGLDFLHSKKVIHH,not soluble
19,MGHHHHHHSHIGSFPLPKGITREWVERNLHTKEYEEMVQRAFLMKAKVLDVPTYPQFRDMIEMFMQPIKANQVEPYLIDERKAVIPELEYVEKMSVEAVRVCITGPFELYYREFGGVIYEDILLNLAESVRRFVENAAKHENVVCISIDEPSLGIAPDLQPDEELLQKALDYKVKQDVQIHLHEPLYYEKILETSVDVIGIECAKKPENMDFIDAEAVASAEKKLRIGVARSDIDGIIAEFNALHGVNAWGNEELISLAIDEIEPVEKIAERISKAKERFGDLLAYIGPDCGLFSFPSQELALQLLENVRKAVRE,not soluble
20,MGHHHHHHSHKIRVAHTPDADDAFMFYAMTHGKVDTWLEIEHVIEDIETLNRKAFNAEYEVTAISAHAYALLDDKYRILSAGASVGDGYGPVVVAKSEISLDGKRIAVPGRYTTANLLLKLAVEDFEPVEMPFDRIIQAVLDEEVDAGLLIHEGQITYADYGLKCVLDLWDWWSEQVKLPLPLGLNAIRRDLSVEVQEEFLRAMRESIAFAIENPDEAIEYAMKYSRGLDRERAKRFAMMYVNDYTYNMPESVDAALKKLYEMAEAKGLIKMPKLDILRL,soluble
